Article PMC11951571, “Mechanism of non-coding RNA regulation of DNMT3A”

What was measured:
DNMT3A_FL WT [1] = biological target: T1, DNMT3A_FL WT (human, UniProt Q9Y6K1 1-912); assay: fluorescence anisotropy; 1 uM protein in complex with 10 nM FAM-H3K4me0 peptide (1-21); 50 uM sinefungin; no anisotropy change; 50 mM KH2PO4/K2HPO4 pH 7.8, 1 mM EDTA, 1 mM DTT, 0.2 mg/ml BSA, 20 mM NaCl, 50 uM sinefungin (printed 'μm'), room temperature, 5 min
DNMT3A_CD R771A;DNMT3L = DNMT3A_CD R771A;DNMT3L (human;human, UniProt Q9Y6K1;Q9UJW3 634-912;1-386, R771A|); assay: fluorescence anisotropy; heterotetramer pre-bound to 10 nM FAM-GCbox30; 50 uM sinefungin; 50 mM KH2PO4/K2HPO4 pH 7.8, 1 mM EDTA, 1 mM DTT, 0.2 mg/ml BSA, 20 mM NaCl, 50 uM sinefungin (printed 'μm'), room temperature, 5 min; details: protein: recombinant;recombinant; tags: His (pET28a, nickel column);; chain copies: 2;2; 25 nt
Sequence of DNMT3A_CD R771A;DNMT3L (Q9Y6K1 634-912 R771A, chain 1 of 2): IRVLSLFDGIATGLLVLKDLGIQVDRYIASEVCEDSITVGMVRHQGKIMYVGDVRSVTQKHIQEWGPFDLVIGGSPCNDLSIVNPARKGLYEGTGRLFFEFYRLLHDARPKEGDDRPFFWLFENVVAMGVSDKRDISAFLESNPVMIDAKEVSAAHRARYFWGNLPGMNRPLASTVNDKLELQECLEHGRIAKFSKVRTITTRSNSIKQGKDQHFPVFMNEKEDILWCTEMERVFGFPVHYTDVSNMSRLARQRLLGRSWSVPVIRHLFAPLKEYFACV
Sequence of DNMT3A_CD R771A;DNMT3L (Q9UJW3 whole entry, chain 2 of 2): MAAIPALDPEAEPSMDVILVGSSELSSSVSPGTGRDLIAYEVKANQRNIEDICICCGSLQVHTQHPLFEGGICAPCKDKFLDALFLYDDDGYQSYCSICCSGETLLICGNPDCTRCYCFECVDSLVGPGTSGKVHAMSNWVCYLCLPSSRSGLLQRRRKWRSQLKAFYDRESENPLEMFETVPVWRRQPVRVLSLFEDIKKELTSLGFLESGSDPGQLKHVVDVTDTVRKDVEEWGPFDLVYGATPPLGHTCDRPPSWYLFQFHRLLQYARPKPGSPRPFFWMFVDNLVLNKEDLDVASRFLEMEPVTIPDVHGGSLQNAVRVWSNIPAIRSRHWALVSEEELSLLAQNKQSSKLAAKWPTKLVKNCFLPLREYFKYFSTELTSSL

DNMT3A_FL WT [2] = biological target: T1, DNMT3A_FL WT; assay: fluorescence anisotropy; 1 uM protein in complex with 10 nM FAM-H3K4me0 peptide (1-21); 50 uM sinefungin; 50 mM KH2PO4/K2HPO4 pH 7.8, 1 mM EDTA, 1 mM DTT, 0.2 mg/ml BSA, 20 mM NaCl, 50 uM sinefungin (printed 'μm'), room temperature, 5 min
DNMT3A_CD WT = DNMT3A_CD WT (human, UniProt Q9Y6K1 634-912); assay: fluorescence anisotropy; 1 uM protein pre-bound to 10 nM FAM-GCbox30; 50 uM sinefungin; anisotropy rises on RNA addition; 50 mM KH2PO4/K2HPO4 pH 7.8, 1 mM EDTA, 1 mM DTT, 0.2 mg/ml BSA, 20 mM NaCl, 50 uM sinefungin (printed 'μm'), room temperature, 5 min; details: protein: recombinant; tags: His (pET28a, nickel column); chain copies: 4; 25 nt
Sequence of DNMT3A_CD WT (Q9Y6K1 634-912): as the sequence (Q9Y6K1 634-912 R771A, chain 1 of 2) above, with A138R counted along it

DNMT3A_CD R736A = DNMT3A_CD R736A (human, UniProt Q9Y6K1 634-912, R736A); assay: fluorescence anisotropy; 1 uM protein pre-bound to 10 nM FAM-GCbox30; 50 uM sinefungin; 50 mM KH2PO4/K2HPO4 pH 7.8, 1 mM EDTA, 1 mM DTT, 0.2 mg/ml BSA, 20 mM NaCl, 50 uM sinefungin (printed 'μm'), room temperature, 5 min; details: protein: recombinant; tags: His (pET28a, nickel column); chain copies: 4; 25 nt
Sequence of DNMT3A_CD R736A (Q9Y6K1 634-912 R736A): as the sequence (Q9Y6K1 634-912 R771A, chain 1 of 2) above, with R103A, A138R counted along it

DNMT3A_CD R729A = DNMT3A_CD R729A (human, UniProt Q9Y6K1 634-912, R729A); assay: as above; details: protein: recombinant; tags: His (pET28a, nickel column); chain copies: 2; 25 nt
Sequence of DNMT3A_CD R729A (Q9Y6K1 634-912 R729A): as the sequence (Q9Y6K1 634-912 R771A, chain 1 of 2) above, with R96A, A138R counted along it

T1 sequence (Q9Y6K1 whole entry): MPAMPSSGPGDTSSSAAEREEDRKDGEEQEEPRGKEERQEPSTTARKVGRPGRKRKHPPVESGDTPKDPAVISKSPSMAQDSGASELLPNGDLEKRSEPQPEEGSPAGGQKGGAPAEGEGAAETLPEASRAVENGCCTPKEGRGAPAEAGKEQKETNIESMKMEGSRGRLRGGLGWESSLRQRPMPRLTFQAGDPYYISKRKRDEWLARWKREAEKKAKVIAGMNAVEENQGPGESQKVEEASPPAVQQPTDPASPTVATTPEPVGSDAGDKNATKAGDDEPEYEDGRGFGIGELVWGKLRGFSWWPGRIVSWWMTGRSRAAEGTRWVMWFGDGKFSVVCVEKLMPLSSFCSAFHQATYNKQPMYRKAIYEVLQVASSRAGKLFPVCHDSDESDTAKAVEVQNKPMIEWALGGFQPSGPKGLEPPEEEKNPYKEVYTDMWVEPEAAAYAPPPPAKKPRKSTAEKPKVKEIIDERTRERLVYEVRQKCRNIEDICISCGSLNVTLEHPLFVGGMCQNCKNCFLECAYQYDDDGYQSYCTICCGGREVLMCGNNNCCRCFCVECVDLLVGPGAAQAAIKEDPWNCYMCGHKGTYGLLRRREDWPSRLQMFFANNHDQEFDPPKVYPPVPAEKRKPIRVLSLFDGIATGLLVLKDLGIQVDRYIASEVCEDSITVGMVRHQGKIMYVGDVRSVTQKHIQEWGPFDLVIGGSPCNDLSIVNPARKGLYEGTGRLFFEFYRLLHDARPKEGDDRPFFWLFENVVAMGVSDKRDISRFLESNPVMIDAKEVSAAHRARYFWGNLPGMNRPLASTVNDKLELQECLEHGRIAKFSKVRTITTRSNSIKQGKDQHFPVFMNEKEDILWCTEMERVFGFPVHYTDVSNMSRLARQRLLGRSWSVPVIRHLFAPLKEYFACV

| Binder | binding result (DNMT3A_FL WT [1]) | binding result (DNMT3A_CD R771A;DNMT3L) | binding result (DNMT3A_FL WT [2]) | binding result (DNMT3A_CD WT) | binding result (DNMT3A_CD R736A) | binding result (DNMT3A_CD R729A) |
| --- | --- | --- | --- | --- | --- | --- |
| CGACCGCCUACUGAAAGAGGGC (ssRNA) [non-specific RNA] | no binding | – | – | – | – | – |
| GGGGACACGCCCUCUGUUCCCUUAU (ssRNA) [Fos-1 ecRNA] | – | binds | binds | binds | binds | binds |
